The values that follow are results of earlier work, collected in PMC6858539.

Read-outs that look alike come from different tables or passages of the source.

The target of series [1] is RodZ nascent chain on ribosome (RNC-RodZ) (Escherichia coli) (UniProt P27434).
For series [2] the target is unchanged. This is another data set of the same source.

UniProt P27434, sequence (P27434 whole entry): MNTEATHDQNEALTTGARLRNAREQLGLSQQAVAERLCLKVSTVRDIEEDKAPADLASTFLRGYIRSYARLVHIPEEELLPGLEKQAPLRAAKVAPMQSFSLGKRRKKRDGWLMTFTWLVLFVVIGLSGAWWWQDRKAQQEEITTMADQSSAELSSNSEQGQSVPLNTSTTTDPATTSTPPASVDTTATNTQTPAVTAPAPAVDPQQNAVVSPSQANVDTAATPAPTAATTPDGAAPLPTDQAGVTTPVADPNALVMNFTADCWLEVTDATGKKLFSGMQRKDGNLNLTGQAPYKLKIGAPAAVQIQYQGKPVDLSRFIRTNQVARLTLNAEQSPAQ

SRP (from UniProt P0AGD7): in series [1], the Kd (usually the equilibrium constant for the complex coming apart) was 24 nM. Take SecA (from UniProt P10408): the Kd in series [2] was less than 1 nM.
